Data reported in US7838495B2, “Compositions and methods of use of EPB1, and ErbB3 binding protein” (University of Maryland, Baltimore, priority 2007, dated 2010).

Tested on: C81 cells
Assay: C81 xenografts in female athymic nude mice
Format: in vivo
Protocol: FIG. 8A-C. Manipulation of EBP1 expression affects growth of prostate cancer cells in vivo. A. Ectopic expression of EBP1 reduces the growth of androgen independent cells in athymic female mice C81 vector or EBP1 transfected cells were injected subcutaneously into female athymic mice. Tumor development with time is shown (n=10 animals, 20 sites per group). B. Tumor volumes and growth rate. Tumor volumes were calculated as described in “Materials and Methods”. Each point represents the mean±SE (10 mice per group injected at 20 sites). C. Elimination of EBP1 expression enhances growth of androgen dependent LNCaP cells in vivo. A16 lentivirus control or C13 EBP1 shRNA transduced LNCaP cells were injected subcutaneously into female athymic mice. Tumor volumes were calculated as described in “Materials and Methods”. Each point represents the mean±SE (10 mice per group injected at 20 sites). * indicates p 0.04.
Western Blot Analysis. Western blot analysis was performed as previously described (19). The Ebp1 antibody was from Upstate (Lake Placid, N.Y.), the polyclonal antibody to actin from Sigma, the AKT and phospho AKT antibodies from Cell Signaling (Beverly, Mass.) and the AGR2 antibody was previously described (20) Cell Growth Assays Cell growth measurement in complete media was performed as described using a hemocytometer (21). For soft agar growth assays, increasing concentrations of cells (as indicated) were plated in 35 mm Petri dishes in 0.3% agar in complete media and colonies were counted after 10 days of incubation (21). For studies assessing the effect of DHT, HRG or chemotherapeutic agents on cell growth, cells (5×10^3) were plated in 96 well plates in complete media. After a 24-hour attachment period, the medium was replaced with steroid free medium [phenol red free RPMI 1640 and 5% charcoal stripped fetal bovine serum (Sigma)]. After 48 hours of steroid depletion, cells were refed with fresh steroid reduced medium with or without the indicated concentrations of DHT, bicalutamide (Casodex) (10 μM), HRG or the chemotherapeutic drugs at the concentrations indicated. Relative cell growth was determined using a Promega Proliferation Reagent (Promega, Madison Wis.) as per manufacturer's instructions with absorbance being read at […] using a Dynex plate reader. Luciferase Reporter Assays Cells (5×10^4) were plated in 12 well plates in complete media. When cells reached 50-60% confluence, they were transfected using the FuGENE®-6 Reagent (Roche, Indianapolis, Ind.) according to the manufacturer's instructions. Cells were transfected with 0.5 μg of an MMTV-luciferase reporter plasmid and 5 ng of a TK Renilla plasmid (Promega, Madison, Wis.) as an internal control. Complete medium was replaced 24 h after transfection with phenol red free RPMI 1640 with CSS with or without R1881 (10^−8M). Luciferase activity was determined using the Promega Dual luciferase assay kit as described by the manufacturer. In Vivo Studies in Athymic Mice Female nude athymic NCr-nu/nu mice, 4-6 weeks of age, were purchased from the National Cancer Institute (Frederick, Md.). Animals were housed in a pathogen free environment under controlled conditions of light and humidity and received food and water ad libitum. […] Tumors were measured with calipers. Tumor volumes were calculated by the formula width^2×length/2 […]. Mean tumor volume±S.D. were calculated and plotted against time. […] Statistical Analysis Results of growth assays were analyzed using a two-sided Students t-test. […]

B1: EBP1: ErbB3 binding protein (SEQ ID NO: 2), AR corepressor, here ectopically expressed in cancer cells by stable transfection of an expression plasmid (protein, listed as Homo sapiens)
chain: MSGEDEQQEQTIAEDLVVTKYKMGGDIANRVLRSLVEASSSGVSVLSLCEKGDAMIMEETGKIFKKEKEMKKGIAFPTSISVNNCVCHFSPLKSDQDYILKEGDLVKIDLGVHVDGFIANVAHTFVVDVAQGTQVTGRKADVIKAAHLCAEAALRLVKPGNQNTQVTEAWNKVAHSFNCTPIEGMLSHQLKQHVIDGEKTIIQNPTDQQKKDHEKAEFEVHEVYAVDVLVSSGEGKAKDAGQRTTIYKRDPSKQYGLKMKTSRAFFSEVERRFDAMPFTLRAFEDEKKARMGVVECAKHELLQPFNVLYEKEGEFVAQFKFTVLLMPNGPMRITSGPFEPDLYKSEMEVQDAELKALLQSSASRKTQKKKKKKASKTAENATSGETLEENEAGD
modifications: FLAG tag
sites that developed tumors at the end of both studies (C81 EBP1 transfectants (vector 25/26), p=0.00001): 10/26
inoculation sites with tumors on Day 28 post transplantation (C81 EBP1 transfectants (vector controls 24/26)): 1/26
day on which the first tumor was observed (C81 EBP1 transfectants s.c. in female nude mice (vector day 8)): 20 days
average tumor volume at the end of the first study (C81 EBP1 transfectants, 6 sites per group, Mean+S.E. (vector 998±206), p=0.01): 104±70 mm^3
average tumor volume, second experiment (C81 EBP1 transfectants, 20 sites per group (vector 561±47), p=0.0001, in mm³ (unit assumed)): 206±54
